“Also recorded” adds a separate entry of the source.
T1: CsgG nonamer (Escherichia coli, UniProt P0AEA2)
T1 construct: made in house; host or cells: E. coli BL21 (DE3)
T1 sequence (P0AEA2 whole entry, looked up): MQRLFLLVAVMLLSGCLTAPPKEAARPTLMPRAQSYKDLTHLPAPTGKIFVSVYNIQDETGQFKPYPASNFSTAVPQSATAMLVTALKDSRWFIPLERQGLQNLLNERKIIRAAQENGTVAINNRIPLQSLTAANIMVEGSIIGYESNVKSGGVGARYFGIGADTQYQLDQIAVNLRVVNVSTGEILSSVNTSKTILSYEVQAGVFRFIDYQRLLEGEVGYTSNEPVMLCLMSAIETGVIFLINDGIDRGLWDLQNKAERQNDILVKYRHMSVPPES

B1: CsgE: soluble accessory factor that binds CsgG (protein)
chain: VEVEVPGLLTDHTVSSIGHDFYRAFSDKWESDYTGNLTINERPSARWGSWITITVNQDVIFQTFLFPLKRDFEKTVVFALIQTEEALNRRQINQALLSTGDLAHDEF
modifications: left off: His tag (from the Ni-NTA purification of the input), end not stated, state not stated

Key:
[1] = test system: CsgE; assay: Pulldown assay of different parts of CsgA with CsgE; assay type: binding, E. coli; conditions: C-terminal MBP tag on CsgA parts
[2] = biological target: T1, CsgG nonamer; assay type: binding, E. coli K12; conditions: given in reply to Reviewer #1
Description: (1 picture or pasted object on this page, not shown here)
are provided as a Source Data file.

[3] = test system: CsgG; assay: Pulldown assay of CsgE with CsgG; assay type: binding, E. coli; conditions: western blot
Method: The CsgE and CsgG were transformed in E. coli BL21 (DE3) strain. […] After incubation for 30 min, CsgE alone and CsgE-CsgG mixture were loaded to Strep-Tactin columns (IBA), respectively. The beads were washed for four times with a buffer having 25 mM Tris pH 8.0, 150 mM NaCl and 0.02% DDM and then eluted by an elution buffer (25 mM Tris pH 8.0, 150 mM NaCl, 0.02% DDM and 25 mM desthiobiotin). […] The samples were analyzed using 15% SDS–PAGE and detected using western blotting.

[4] = test system: CsgA; conditions: cited from earlier work

Row | Molecule | interaction of CsgA part with CsgE in pulldown [1] | CsgE-CsgG ITC interaction strength (in words) [2] | interaction of CsgE with CsgG in pulldown [3] | inhibition of CsgA self-assembly into amyloid fibers [4]
1 | CsgAR1-5: five C-terminal repeating units of CsgA | CsgE bound to CsgAR1-5 |  |  | 
2 | B1 |  | mM level | CsgG could pull-down CsgE; also recorded: interacts with the CsgG channel | inhibit self-assembly of CsgA into amyloid fibers

Reference: publication PMC6957492, “Assembly and substrate recognition of curli biogenesis system” (Nature Communications, 2020)
